Laboratory results from US11795454B2, “Targeted delivery system” (Cedars-Sinai Medical Center, priority 2009, dated 2023).

Columns and labels:
[1] = test system: HER2 siRNA; experiment: siRNA gel mobility shift assay; format: binding; details: 50 pmol siRNA, increasing protein
Description: The gel was stained with ethidium bromide to visualize siRNA and siRNA-protein complexes.
One goal was to assemble a noncovalent siRNA conjugate. […] The duplex, which was obtained from Invitrogen (Carlsbad, CA, USA), has been established elsewhere to specifically eliminate HER2 transcripts and thus induce apoptosis (Choudhury et al., 2004; Faltus et al., 2004).

[2] = Ultrafiltration of HerPBK10-siRNA conjugates (100K mwco, high speed centrifugation); format: physicochemical
Description: FIGS. 6A-6B depict, in accordance with an embodiment described herein, HerPBK10-siRNA form stable conjugates that can be isolated by ultrafiltration. Conjugates were made in 0.1M Hepes/OptimemI buffer for 20′-RT, as described above. […] Filtrates and retentates were collected and loaded onto either a 2% agarose (FIGS. 6A and 6B, left panel) or 5% PAGE/native gel (FIG. 6B, right panel). Gels were stained for Et-Br to visualize siRNA and siRNA-protein complexes.

[3] = test system: HER2+ MDA-MB-435 tumors; experiment: Tumor growth after intratumoral injection; format: in vivo, mouse; details: two IT injections a week apart, 1.5 nmoles siRNA
Experimental: FIGS. 15A-15B depict, in accordance with an embodiment herein, effect on tumor growth. Female (6-8 week) nude mice were inoculated with human HER2+ MDA-MB-435 cancer cells by subcutaneous flank injections of 1×10^7 cells per injection. At 4-6 weeks after implant, weekly measurements were taken to quantify tumor volume and track growth. […] Complex was prepared as described in FIG. 14. FIG. 15A, representative mice at week 4 with tumors indicated by arrows.
Before testing for targeted toxicity of HerPBK10-siRNA, the inventors assessed cytotoxic potential in vivo after intratumoral (IT) injection of complexes in tumor-bearing mice. […] Blood was also collected after each injection to assess cytokine levels. […] Even though the complex was not delivered intravenously but rather by IT injection, there still appears to be an advantage to the targeted complex with regard to tumor toxicity.

[4] = test system: IFN-alpha; experiment: IFN-alpha secretion by sandwich ELISA, MDA-MB-435 cells; format: cell-based, human; details: complex at 10 and 50 nM siRNA dose, HerPBK10 equivalent to 50 nM dose, 24 h
Experimental: (§1) FIGS. 13A-13B depict, in accordance with an embodiment herein, cytokine induction. […] At 24 h after treatment, media was collected from above the cells and assayed for (FIG. 13A) IFN-alpha, or (FIG. 13B) IFN-beta titer by sandwich ELISA following manufacturer's protocol (PBL Biomedical Laboratories). *, P<0.01 (compared to untreated); **, P=0.01 (HER2+ vs HER2− cells); †, P<0.05 (compared to untreated). Statistical significances determined by 2-tailed t tests.
(§2) To examine whether cytokines contribute to the targeted toxicity observed earlier, the media of HerPBK10-siRNA (T7-transcribed)-treated HER2+ MDA-MB-435 and HER2− MDA-MB-231 cells were collected and assayed by ELISA for interferons alpha and beta. […] Given the overall low level of cytokine detected in the medium by all treatments, these differences are likely to have little relevance.

[5] = test system: IFN-alpha; experiment: IFN-alpha secretion by sandwich ELISA, MDA-MB-231 cells; format: cell-based, human; details: 24 h
Experimental: as §1, §2

[6] = test system: MDA-MB-231 (HER2−) cells; experiment: Cell survival (crystal violet) after targeted or lipo-mediated siRNA delivery; format: cell-based, human
Experimental: (§3) Complexes were prepared as described in FIG. 2. Un, untreated. In FIG. 12A, *, P<0.02 (HER2+ vs HER2− cells). In FIG. 12B, *, P<0.05 (compared to untreated). Significant differences determined by 2-tailed t tests.

[7] = test system: MDA-MB-435 (HER2+) cells; experiment: as above; format: cell-based, human
Experimental: as §3

[8] = test system: IFN-alpha; experiment: In vivo cytokine induction, blood IFN-alpha ELISA after IT injection; set-up: species or system mouse; details: 24 h after each IT injection, compared to saline control
Experimental: FIG. 16 depicts, in accordance with an embodiment herein, in vivo cytokine induction. Blood was collected from the mice treated in FIG. 15B at 24 h after each IT injection and relative IFN-alpha levels quantified by sandwich ELISA following manufacturer's protocol (PBL Biomedical Laboratories). Control, tumors receiving saline injections. *, P=0.05 compared to control (as determined by 2-tailed unpaired T test).
To examine whether cytokines contribute to the tumor reduction observed and described herein, blood was collected from the same mice at 24 h after each IT injection and assayed for interferon (TFN)-alpha. […] It is possible that its indirect contribution results from enhanced tumor delivery, penetration, retention. Together with the tumor-shrinkage observed from these injections, these findings provide additional evidence that the targeted carrier, HerPBK10, can deliver both siRNA-mediated silencing and cytokine-mediated cytotoxicity to induce two-pronged targeted destruction to tumor cells.

[9] = test system: HER2+ (MDA-MB-435) tumors; experiment: In vivo tumor targeting of Cy5-labeled siRNA, fluorescence imaging; set-up: species or system mouse; details: tail vein injection
Description: FIGS. 23A-23C depict in accordance with an embodiment herein, monitoring in vivo tumor targeting. […] The mice were immediately monitored by in vivo fluorescence intensity imaging through our collaborators' imaging facility (Farkas lab, Cedars-Sinai Medical Center). 23C, Analysis of the fluorescence intensity contrast between tumor and non-tumor areas of 23A and 23B (graphs).

[10] = siRNA stability in serum, agarose gel electrophoresis; format: in vitro ADME, bovine; details: 100% serum, 1 h at 37° C.
Description: We examined the stability of siRNA conjugates in whole serum. […] Ethidium bromide staining of the agarose gel identifies the siRNA molecular size and relative concentration.

[11] = test system: HER2+ human breast cancer cells; experiment: Survival of HER2+ cells in culture after targeted conjugate (summary); format: cell-based; details: depending on the cell line
Description: The inventors designed HerPBK10 to penetrate HER2+ cells by combining the ‘Her’ domain for binding heregulin receptors, which have an increased ligand affinity on HER2+ tumor cells, and the membrane lysis and intracellular trafficking features of the ‘PB’ domain, which is derived from the cell-entry functions of the Ad capsid. Binding and transport of nucleic acids can be mediated by the polylysine, ‘K10’ domain. […] Using in vivo fluorescence imaging, it was observed that the targeting ligand used here specifically accumulates at HER2+ tumor tissue in mice while evading accumulation in other tissues. It was also observed that HerPBK10 could mediate the uptake of a Cy3-labeled oligonucleotide in HER2+ cells. […] Associated with this reduction was substantial target cell death.

[12] = test system: MDA-MB-435 (HER2+) cells; experiment: HerDox targeted toxicity in vitro, separate cultures; format: cell-based, human; details: 10× molar excess
Experimental: All treatments, N=3. FIG. 27A. Comparing cytotoxicity to HER2+ (MDAMB-435) and HER2− (MDA-MB-231) cells in separate cultures. Left, Relative survival (as % of untreated cells) on day 3 of treatment. Right, Micrograph of live cells after treatment. Control, mock (HBS) treatment. FIG. 27B, Receptor specificity of cytotoxicity. […] FIG. 27C, Toxicity to cells displaying differential HER2. Cytotoxicities from HerDox titrations were assessed on each cell line by metabolic assay and confirmed by crystal violet stain on day 3 of treatment. CD50 values (shown in log scale) were determined by non-linear regression analyses of HerDox killing curves using GraphPad Prism. The relative HER2 level of each cell line is shown next to each CD50 value. FIG. 27D, Targeting in a mixed MDA-MB-435(HER2+,GFP−)/MDA-MB-231(HER2−,GFP+) cell culture. Survival was determined by calculating the relative doubling time (DT) of experimental (exp) cells normalized by mock-treated (con) cells based on crystal violet stains (total cells) and GFP fluorescence (MDAMB-231 cells), and applying DTMDA-MB-435=DTTotal-DTMDA-MB-231 as previously described. Relative survival is shown for Day 2 of treatment. FIG. 27E, Targeted glioma cell death in vitro. U251 cells were treated once with the indicated HerDox (and competitive inhibitor where indicated) or Dox doses and measured for cell survival at the indicated time points after treatment. * P<0.05 compared to Mock.
For all in vitro treatments, cell lines were grown for ˜36 h after plating (104/well in 96-well dishes) to allow receptor re-expression, followed by media replacement with new media containing indicated constructs in reduced volume at the indicated final molarities for 4 h with rocking, followed by supplementation with additional media and continued growth for the indicated time periods. Except for the experiments performed on the U251 glioma cells (which received a one-time treatment), cells received these treatments daily while separate sets of wells were assessed for cell death by either metabolic assay (CellTiter Promega Corporation, Madison, WI, USA) or crystal violet stain each day. Where indicated, cells received competitive inhibitor (eHRG) at 10× molar excess for 30 min-1 h at 4° C. before treatment. Treatment of mixed (HER2+/HER2−) cell cultures with HerDox or Dox (0.5 uM), and cell surface receptor subunit level determination were performed as previously described.

## PB: penton base segment of adenovirus serotype 5 [reference compound]
[1]
  siRNA electromobility: did not

B1: HerPBK10-siRNA: noncovalent conjugate of HerPBK10 with anti-HER2 siRNA bound via electrophilic interaction (conjugate)
chain: LPPRLKEMKSQESAAGSKLVLRCETSSEYSSLRFKWFKNGNELNRKNKPQNIKIQKKPGKSELRINKASLADSGEYMCKVISKLGNDSASANITIVESNEIITGMPASTEGAYVSSESPIRISVSTEGANTSSSTSTSTTGTSHLVKCAEKEKTFCVNGGECFMVKDLSNPSRYLCKCQPGFTGARCTENVPMKVQNQEKAEELYMRRAAMYEEGPPPSYESVVSAAPVAAALGSPFDAPLDPPFVPPRYLRPTGGRNSIRYSELAPLFDTTRVYLVDNKSTDVASLNYQNDHSNFLTTVIQNNDYSPGEASTQTINLDDRSHWGGDLKTILHTNMPNVNEFMFTNKFKARVMVSRLPTKDNQVELKYEWVEFTLPEGNYSETMTIDLMNNAIVEHYLKVGRQNGVLESDIGVKFDTRNFRLGFDPVTGLVMPGVYTNEAFHPDIILLPGCGVDFTHSRLSNLLGIRKRQPFQEGFRITYDDLEGGNIPALLDVDAYQASLKDDTEQGGGGAGGSNSSGSGAEENSNAAAAAMQPVEDMNDHAIRGDTFATRAEEKRAEAEAAAEAAAPAAQPEVEKPQKKPVIKPLTEDSKKRSYNLISNDSTFTQYRSWYLAYNYGDPQTGIRSWTLLCTPDVTCGSEQVYWSLPDMMQDPVTFRSTRQISNFPVVGAELLPVHSKSFYNDQAVYSQLIRQFTSLTHVFNRFPENQILARPPAPTITTVSENVPALTDHGTLPLRNSIGGVQRVTITDARRRTCPYVYKALGIVSPRVLSSRTFKKKKKKKKKK
[2]
  Free siRNA in 100K filtrates: low to no detection of free siRNA
[3]
  tumor growth: average reduction in tumor growth
[4]
  IFN-alpha secretion: substantially elevated
[5]
  IFN-alpha secretion: little affected
[6]
  cell survival: little to no effect
[7]
  cell survival: dose-dependent reduction in survival
[8]
  circulating IFN-alpha: elevated circulating IFN-alpha
[9]
  tumor retention: tumor retention
[9]; all time points, compared to free siRNA
  fluorescence intensity contrast between tumors and non-tumor areas: preferential tumor accumulation
[10]
  State of the siRNA (ethidium bromide staining): intact
[11]
  reduction in HER2+ cell survival: up to 85%

B2: eHRG: competitive inhibitor, competing ligand of the heregulin receptor (protein, UniProt Q02297 20-242, looked up)
extracellular domain: SGKKPESAAGSQSPALPPRLKEMKSQESAAGSKLVLRCETSSEYSSLRFKWFKNGNELNRKNKPQNIKIQKKPGKSELRINKASLADSGEYMCKVISKLGNDSASANITIVESNEIITGMPASTEGAYVSSESPIRISVSTEGANTSSSTSTSTTGTSHLVKCAEKEKTFCVNGGECFMVKDLSNPSRYLCKCQPGFTGARCTENVPMKVQNQEKAEELYQKR
modifications: extracellular domain
[12]
  effect of competitive inhibitor on cell killing by HerDox: prevented HER2+ cell killing
